Tests used:
[1] = target: T1, human IL-21R expressed on cells (human, UniProt Q9HBE5 20-538); assay: cell-based or functional assay
[2] = target: T2, human IL-21R fusion protein (human, UniProt Q9HBE5 20-235, biotinylated in the assay of Example 11 (site not stated)); assay: epitope competition assay: bio.hIL21R binding to immobilized MUF IgG (competitor), DELFIA
T2 construct: Soluble fusion protein (Wyeth); The extracellular domain is said to be about residues 20-235; also called soluble IL-21R fusion protein; biotinylated human IL-21R fusion protein
Experimental: The scFv clones 18A5, 19F5 and 18G4 were further tested in an epitope competition assay in order to determine whether they bound the same or a different epitope than MUF. ScFv-containing periplasmic extracts were prepared as described above for the various clones. Final buffer used was 50 mM MOPS, pH 7.4, 0.5 mM EDTA, 0.5 M sorbitol. The scFv-containing crude periplasmic extracts were screened for the ability to inhibit the binding of biotinlyated human IL-21R fusion protein (bio.hIL21R) to MuF IgG protein immobilized on plastic in a 96 well microtitre plate assay. Binding of bio.hIL21R was detected with Europium-labelled streptavidin and TRF detected using the DELFIA reagent kit (PerkinElmer). Positive clones were used in an epiope competition assay described herein.

[3] = target: T1, human IL-21R expressed on cells; assay: cell-based or functional assay; remark: listed apart in the source
[4] = target: T2, human IL-21R fusion protein; assay: phage ELISA on coated IL-21R fusion protein
Experimental: To establish the specificity of the scFᵥ's for IL-21R, a phage ELISA was performed against the IL-21R fusion protein. Individual TG1 cell colonies from the second selection were transferred to microtiter wells containing 100 μl of -2TYAG medium. M13K07 helper phage ([…]) was added to the exponentially growing TG1 culture, and the samples were incubated for one hour at 37° C. Plates were centrifuged and supernatant was removed, then the remaining pellets were suspended in 100 μl of 2TYAG and incubated overnight at 30° C. with shaking. The next day, plates were centrifuged and phage supernatant was transferred to new microtiter plate wells. Phage was blocked in MPBS prior to ELISA.
Wells of microtiter plates were coated with IL-21R fusion protein or control fusion protein (0.5-2.5 μg/ml) and incubated overnight at 4° C. The next day, fusion protein solution was removed and wells were blocked for 1 hour in MPBS. Wells were washed with PBS, then 50 μl of blocked phage was added. Plates were incubated for 1 hour, then washed 3 times with PBST and 3 times with PBS. Anti-M13-HRP conjugate (Pharmacia, Peapack, N.J.) was added to wells, and the samples were incubated for one hour. Wells were washed 3 times with PBST and 3 times with PBS. […] The color signal was measured by reading absorbance at 450 nm using a microtiter plate reader.

[5] = target: T2, human IL-21R fusion protein; assay: DELFIA competition: inhibition of human IL-21R fusion protein binding to captured IL-21-FLAG
Experimental: ScFv production was induced by addition of 1 mM IPTG to exponentially growing cultures and incubation overnight at 30° C. Crude scFv-containing periplasmic extracts (Griffiths et al.(1993) EMBO J., 12:725-734) were screened for the ability to inhibit the binding of human IL-21R fusion protein to human IL-21-FLAG tagged protein. Briefly, anti-FLAG antibody was immobilized onto plastic and used to capture FLAG-tagged human IL-21 protein. Binding of human IL-21R fusion protein was detected with a Europium-labelled antibody to the IL-21R fusion protein, and time resolved fluorescence was detected with the DELFIA reagent kit (PerkinElmer, Boston, Mass.).

T1 sequence (Q9HBE5 20-538): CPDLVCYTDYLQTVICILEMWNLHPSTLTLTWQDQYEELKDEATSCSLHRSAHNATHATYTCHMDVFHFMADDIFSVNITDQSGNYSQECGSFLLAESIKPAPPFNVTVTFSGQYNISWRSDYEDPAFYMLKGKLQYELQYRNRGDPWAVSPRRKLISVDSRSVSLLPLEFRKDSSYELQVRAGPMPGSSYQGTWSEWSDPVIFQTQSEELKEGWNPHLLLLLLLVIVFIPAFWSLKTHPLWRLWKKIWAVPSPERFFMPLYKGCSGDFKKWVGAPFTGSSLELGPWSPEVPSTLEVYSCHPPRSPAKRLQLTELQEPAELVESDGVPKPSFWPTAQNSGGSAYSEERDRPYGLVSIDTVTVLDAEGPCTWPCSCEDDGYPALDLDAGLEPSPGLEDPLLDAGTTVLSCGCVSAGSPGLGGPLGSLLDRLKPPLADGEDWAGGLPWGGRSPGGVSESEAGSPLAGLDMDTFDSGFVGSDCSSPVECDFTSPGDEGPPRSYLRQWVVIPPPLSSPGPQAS
T2 sequence (Q9HBE5 20-235): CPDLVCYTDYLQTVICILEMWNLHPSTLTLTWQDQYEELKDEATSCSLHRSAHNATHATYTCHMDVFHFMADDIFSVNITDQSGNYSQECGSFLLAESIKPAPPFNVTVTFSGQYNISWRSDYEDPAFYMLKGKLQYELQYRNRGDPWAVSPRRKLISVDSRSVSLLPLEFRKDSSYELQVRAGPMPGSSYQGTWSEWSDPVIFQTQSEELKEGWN

| Binder | IC50 Value (nM) ScFv, hBaf3Mu-1 cell proliferation assay [1] [nM] | IC50 [2] [nM] | other results |
| --- | --- | --- | --- |
| 18A5 scFv (scFv) scFv: QVQLQESGPGLVKTSETLSLTCAVSGYSISSGYYWGWIRQPPGKGLEWIGSISHTGNTYYNPPLKSRVTISVDTSKNQFSLKLSSVTAADTAVYYCARGGGISRPEYWGKGTLVTVSSGGGGSGGGGSGGGGSALSSELTQDPPVSVALGQTVTLTCQGDSLRTYYASWYQQKSGQAPILLLYGKHKRPSGIPDRFSGSTSGDTASLTITGAQAEDEADYYCNSRDSSGNPHVLFGGGTQLTVLS | 213 | 114 |  |
| MUF scFv (scFv) scFv: QVQLVQSGAEVKKPGSSVRVSCKASGGTFNIYSVSWVRQAPGQGLEWMGRIIPMRDIANYAQRFQGRVTLTADKSSGTAYMELRGLRSDDTAVYWCATLAGPLDSWGQGTLVTVSSGGGGSGGGGSGGGGSALSSELTQDPAVSVGLGQTVTITCQGGSLRQYYASWYQQKPGQAPVVVIYGKNKRPSGIPDRFSGTTSGNTASLTITGAQAEDEADYYCKSRDSSGNHPLYVFGAGTKLTVLGAAAHHHHHH | 140 |  | IC50, inhibition of cell response to IL-21 (hBaf3Mu-1 proliferation) [3]: 268 nM |
| MUF antibody (human IgG1 lambda) (antibody, V domains shown, also called MUF IgG; MuF IgG protein) VH: QVQLVQSGAEVKKPGSSVRVSCKASGGTFNIYSVSWVRQAPGQGLEWMGRIIPMRDIANYAQRFQGRVTLTADKSSGTAYMELRGLRSDDTAVYWCATLAGPLDSWGQGTLVTVSS VL: SSELTQDPAVSVGLGQTVTITCQGGSLRQYYASWYQQKPGQAPVVVIYGKNKRPSGIPDRFSGTTSGNTASLTITGAQAEDEADYYCKSRDSSGNHPLYVFGAGTKLTVLG |  | 0.4 | IC50, inhibition of cell response to IL-21 (hBaf3Mu-1 proliferation) [3]: 3 nM |
| 18G4 scFv (scFv) scFv: EVQLVQSGAEVKKPGSSVKVSCKASGGTFNIYSVSWVRQAPGQGLEWMGRIIPMRDIANYAQRFQGRVTLTADKSSGTAYMELRSLRSDDTAVYWCATLAGPLDSWGRGTLVTVSSGGGGSGGGGSGGGGSALSSELTQDPAVSVALGQTVRITCQGDSLRTYYASWYQKRPGQAPILVMYGRNKRPSGIPDRFSGSFSGNRASLTITGAQAEDEADYYCKSRAYSGNLVEFGGGTKLTVLG | 522 | 1.4 |  |
| 19F5 scFv (scFv) scFv: EVQLVQSGAEVKKPGASVKVSCKASGYAFTDNYIHWVRQAPGQGLEWMGWINPKTGGTNYAQKFQGRVSMTRDTSINTAYMDLSRLTSDDTAVYYCTRSLSPYGGQLLYWGRGTMVTVSSGGGGSGGGGSGGGGSALSSELTQDPAVSVALGQTVRITCQGDSLRRYYASWFQQKPGQAPVLVIFGKNNRPSGIPDRFSASSSGNTASLTITGAQAEDEADYYCNSRDTSINHPVIFGGGTKLTVLG | 91 |  |  |
| MU11 phage clone (scFv) scFv: EVQLVQSGGGVVQPGRSLRLSCAASGFTFSSYGMHWVRQAPGKGLEWVAVISYDGSNKYYADSVKGRFTISRDNSKNTLYLQMNSLRDEDTAVYYCARHGQYALDIWGQGTMVTVSSGGGGSGGGGSGGGGSDIVMTQSPSTLSASVGDRVTITCRASQGISSWLAWYQQKPGRAPKVLIYKASTLESGVPSRFSGSGSGTDFTLTISSLQPEDFATYYCQQSYSTPWTFGQGTKLEIKRAA |  |  | binding result [4]: binds |
| R18 scFv (scFv, also called hIL21R18; scFv R18 clone) scFv: QVQLQESGGGLVQPGGSLRLSCAASGFTFSSYAMSWVRQAPGKGLEWVSGISGSGTSTYYADSVKGRFTISRDNSKNTLYLQMNSLRAEDTAVYYCATHISERPRGAFDIWGRGTMVTVSSGGGGSGGGGSGGGGSALSSELTQDPAVSVALGQTVRITCQGDSLRKYHATWYQQKPRQAPVLVVYGKNRRPSGIPDRFSGSSSGNTASLTITGAQAGDEADYYCNSRDTSGLHYVFGAGTKLTVLG | 473 |  | IC50 [5]: 770 nM |

Reference: patent US20040265960A1 (Pfizer, published 2004)
